Measurements from paper PMC11720163, “Position-Dependent Effects of AP Sites Within an hTERT Promoter G-Quadruplex Scaffold on Quadruplex Stability and Repair Activity of the APE1 Enzyme”.

B1: 96-G4 (structured_DNA)
DNA: GCCGCGGAAAGGAAGGGGAGGGGCTGGGAGGGCCCGGAGGGGGCTGGGCCGGGGACCCGGGAGGGGTCGGGACGGGGCGGGGTCCGCGCGGAGGAG

Columns and labels:
[1] = molecular target: APE1 (human AP endonuclease 1), His-tagged (Homo sapiens) (UniProt P27695); test: BLI; conditions: 1 mM Ca2+, N = F, BLI: 20 mM Tris-HCl pH 7.5, 100 mM KCl, 1 mM CaCl2, DNA 10-100 nM, temperature not stated, DNA annealed with at least 20 mM KCl
Chain of APE1 (human AP endonuclease 1), His-tagged (Homo sapiens) (P27695 whole entry): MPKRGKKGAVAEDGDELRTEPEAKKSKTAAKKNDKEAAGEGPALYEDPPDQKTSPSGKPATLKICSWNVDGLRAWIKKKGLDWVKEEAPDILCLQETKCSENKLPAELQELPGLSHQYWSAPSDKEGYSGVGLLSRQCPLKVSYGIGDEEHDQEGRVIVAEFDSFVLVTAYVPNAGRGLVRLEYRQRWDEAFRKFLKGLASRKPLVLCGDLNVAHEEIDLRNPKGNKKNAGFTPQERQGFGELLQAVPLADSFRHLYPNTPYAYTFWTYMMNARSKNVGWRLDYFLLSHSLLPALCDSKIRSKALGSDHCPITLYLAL

[2] = molecular target: APE1 (human AP endonuclease 1), His-tagged (Homo sapiens, UniProt P27695 1-318); test: BLI; 1 mM Ca2+; BLI: 20 mM Tris-HCl pH 7.5, 100 mM KCl, 1 mM CaCl2; DNA 10-100 nM; temperature not stated; DNA annealed with at least 20 mM KCl; conditions: protein: recombinant; label: 3'-TAMRA; three stacked intramolecular parallel G4s
Chain of APE1 (human AP endonuclease 1), His-tagged (P27695 whole entry): as above

| Molecule | Kd ([1]; stable AP site analog) [nM] | other results |
| --- | --- | --- |
| ACCTGGATGCCTATAGGGCGAATTGGGTACCGCTGAATTGCACTGGACTNGATCCTCGATGATCCTAAGCTAAGCTTCAGCTCCAGCCTAAGCCTG [96-RF] |  | Kd fold-increase relative to G4 substrates (fold higher Kd than G4 substrates) ([1]; stable AP site analog): 10 |
| GCCGCGGAAAGGAAGGGGAGGGGCTGGGAGGGCCCGGANGGGGCTGGGCCGGGGACCCGGGAGGGGTCGGGACGGGGCGGGGTCCGCGCGGAGGAG [96-G228F] | 3 |  |
| GCCGCGGAAAGGAAGGGGAGGGGCTGGGAGGGCCCGGAGGGGGCTGGGCCGGNGACCCGGGAGGGGTCGGGACGGGGCGGGGTCCGCGCGGAGGAG [96-G243F] | 3 |  |
| GCCGCGGAAAGGAAGGGGAGGGGCTGGGAGGGCCCGGAGGGGGCTGGGCCGGGGACCCGGNAGGGGTCGGGACGGGGCGGGGTCCGCGCGGAGGAG [96-G250F] | 3 |  |
| GCCGCGGAAAGGAAGGGGAGGGGCTGGGAGGGCCCGGAGGGGGCTGGGCCGNNGACCCGGGAGGGGTCGGGACGGGGCGGGGTCCGCGCGGAGGAG [96-G242,243F] |  | Kd ([1]; stable AP site analog (two)): 3 nM |
| GCCGCGGAAAGGAAGGGGAGGGGCTGGGAGGGCCCGGAGGGGGCTGGGCCGNGGACCCGGGAGGGGTCGGGACGGGGCGGGGTCCGCGCGGAGGAG [96-G242F] | 3 |  |
| B1 |  | Kd [2]: 4.2 ± 1.4 nM |
